Results on four molecules are retold here after patent US20100329980A1 (GENE TECHNO SCIENCE, published 2010).

The target of test [1] is T1, human α4 integrin (human, UniProt P13612 34-1032).
T1 construct: whole, on cells; also called Human α4/CHO-K1 cells; CHO K1 cells expressing human α4 integrin
T1 sequence (looked up): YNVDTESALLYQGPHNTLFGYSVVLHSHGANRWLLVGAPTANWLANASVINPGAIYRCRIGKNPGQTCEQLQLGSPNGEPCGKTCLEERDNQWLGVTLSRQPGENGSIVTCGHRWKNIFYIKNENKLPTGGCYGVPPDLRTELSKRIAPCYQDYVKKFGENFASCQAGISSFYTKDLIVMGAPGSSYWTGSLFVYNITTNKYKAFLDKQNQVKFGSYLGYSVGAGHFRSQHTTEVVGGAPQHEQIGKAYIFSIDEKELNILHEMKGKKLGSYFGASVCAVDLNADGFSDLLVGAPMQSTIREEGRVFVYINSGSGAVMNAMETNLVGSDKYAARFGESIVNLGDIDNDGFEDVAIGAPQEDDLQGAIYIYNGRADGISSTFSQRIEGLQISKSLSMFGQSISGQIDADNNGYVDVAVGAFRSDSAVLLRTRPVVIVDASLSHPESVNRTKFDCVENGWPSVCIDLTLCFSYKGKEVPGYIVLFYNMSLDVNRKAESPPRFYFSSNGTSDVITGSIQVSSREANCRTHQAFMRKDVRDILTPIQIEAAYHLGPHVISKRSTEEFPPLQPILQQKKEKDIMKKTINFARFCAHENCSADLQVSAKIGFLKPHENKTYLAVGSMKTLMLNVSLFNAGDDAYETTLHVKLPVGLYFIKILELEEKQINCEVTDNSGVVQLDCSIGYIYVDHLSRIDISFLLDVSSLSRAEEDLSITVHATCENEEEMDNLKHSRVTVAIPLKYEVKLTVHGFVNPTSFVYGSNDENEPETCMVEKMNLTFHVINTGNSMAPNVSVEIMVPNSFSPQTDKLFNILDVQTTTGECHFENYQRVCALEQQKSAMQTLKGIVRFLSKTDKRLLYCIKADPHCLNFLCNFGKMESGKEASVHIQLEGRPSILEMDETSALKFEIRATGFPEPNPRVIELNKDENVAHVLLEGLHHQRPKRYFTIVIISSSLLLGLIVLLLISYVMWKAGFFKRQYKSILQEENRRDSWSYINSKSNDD
The test can be described thus: FACS, FITC-labeled anti-mouse IgG secondary. The method, then: Whether the anti-human α9 integrin antibodies were usable for FACS was examined using Human α9/CHO-K1 cells, CHO-K1 cells and human neutrophils endogenously expressing the α9 integrin. In human neutrophils, FACS analysis was conducted at the cell count of 1.0×10⁵ and antibodies were reacted on ice. Non-specific reaction with the Fc receptor was blocked with 50% goat serum. FITC-labeled anti-mouse IgG antibody was used as a secondary antibody. As a result (see FIGS. 20a, 20b and 20c), all of the anti-human α9 integrin antibodies could detect the α9 integrin on Human α9/CHO-K1 and human neutrophils. None of the antibodies reacted with Human α4/CHO-K1 cells (see FIGS. 20a, 20b and 20c).
(Flow cytometry measures light scatter and fluorescence of single cells or particles in a stream.)

Test [2] addresses T2, Human α9 integrin sequence KSPGAVFKCRVHTNPDRR (SEQ ID NO: 78) (human, also: coupled to cellulose membrane via C6-spacer and 2 βAla, end not given here).
T2 construct: Spots were twelve-residue peptides offset by three residues
T2 peptide: KSPGAVFKCRVHTNPDRR
In words: peptide spot membrane, peroxidase-labelled antibody, ECL. The method, then: (§1) Twelve-residue polypeptides, starting from N-terminal of human α9 integrin and every three residues thereafter (i.e., amino acid residues 1-12, 4-15, 7-18, and so forth) were prepared and coupled to a cellulose membrane via C6-spacer and 2 βAla residues at 5 nmol/spot. The membrane was blocked with a blocking buffer (milk/0.05% Tween20 in PBS) and reacted with 10 ml of solution containing 1.0 μg/ml of each of the anti-human α9 integrin monoclonal antibodies (i.e., 1K11, 21C5, 24I11 and 25 B6, respectively) labeled with peroxidase for three hours at room temperature. After washing with T-TBS, the membrane was reacted with enhanced chemiluminescence (ECL) detecting reagent for 1 minute at room temperature. The luminescence emitted as a result of the enzymatic reaction is measured and epitopes of the antibodies were determined based on the luminescence intensities. As a control, Y9A2 (see Wang et al., 1996, Am J Respir Cell Mol Biol 15, 664-672), a commercially available monoclonal antibody against human α9 integrin, was used.

Test [3] deals with T3, Human α9 integrin sequence … (SEQ ID NO: 79) (human, coupled to a cellulose membrane via C6-spacer and 2 βAla residues).
T3 construct: Spots were twelve-residue peptides offset by three residues
The description is as above. The method, then: as §1

In test [4] the target is T4, Human α9 integrin sequence CAHRWKNIYYEADHI (SEQ ID NO: 80) (human, also: coupled to cellulose membrane via C6-spacer and 2 βAla, end not given here).
T4 construct: Spots were twelve-residue peptides offset by three residues
T4 peptide: CAHRWKNIYYEADHI
Described as above. The protocol:
as §1

The target in test [5] is T5, Human α9 integrin sequence GFCYIIPSNLQAKGRTLI (SEQ ID NO: 81) (human, also: coupled to cellulose membrane via C6-spacer and 2 βAla, end not given here).
T5 construct: Spots were twelve-residue peptides offset by three residues
T5 peptide: GFCYIIPSNLQAKGRTLI
The test is described as above. The method, then:
as §1

Test [6] has as its target T6, Human α9 integrin sequence VMGAPGSFYWAGTIKVLN (SEQ ID NO: 82) (human, also: coupled to cellulose membrane via C6-spacer and 2 βAla, end not given here).
T6 construct: Spots were twelve-residue peptides offset by three residues
T6 peptide: VMGAPGSFYWAGTIKVLN
The test is described as above. The method, then: as §1

The target of test [7] is T7, Human α9 integrin sequence VIMNRRYTYLGYAVT (SEQ ID NO: 83) (human, also: coupled to cellulose membrane via C6-spacer and 2 βAla, end not given here).
T7 construct: Spots were twelve-residue peptides offset by three residues
T7 peptide: VIMNRRYTYLGYAVT
Described as above. The protocol: as §1

The target of test [8] is T8, Human α9 integrin sequence … (SEQ ID NO: 84) (human, coupled to a cellulose membrane via C6-spacer and 2 βAla residues).
T8 construct: Spots were twelve-residue peptides offset by three residues
The test is described as above. The protocol:
as §1

The target of test [9] is T9, Human α9 integrin sequence RHYVAHVKRRVQDVISPI (SEQ ID NO: 87) (human, also: coupled to cellulose membrane via C6-spacer and 2 βAla, end not given here).
T9 construct: Spots were twelve-residue peptides offset by three residues
T9 peptide: RHYVAHVKRRVQDVISPI
The test is described as above. The protocol: as §1

Test [10] addresses T10, Human α9 integrin sequence CSVGFPFMRSKSKYEFSV (SEQ ID NO: 90) (human, also: coupled to cellulose membrane via C6-spacer and 2 βAla, end not given here).
T10 construct: Spots were twelve-residue peptides offset by three residues
T10 peptide: CSVGFPFMRSKSKYEFSV
The description is as above. The protocol:
as §1

In test [11] the target is T11, Human α9 integrin sequence SSSVIQFMSRAKVKVDPALRV (SEQ ID NO: 91) (human, coupled to a cellulose membrane via C6-spacer and 2 βAla residues).
T11 construct: Spots were twelve-residue peptides offset by three residues
T11 peptide: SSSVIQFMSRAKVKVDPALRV
The description is as above. The method, then: as §1

The target of test [12] is T1, human α4 integrin. In words: hybridoma screening on transfected CHO-K1 cells.
Test [13] has as its target T12, Human α9 integrin sequence QYSMKLSGQKINPVLRMFGQSISG (SEQ ID NO: 85) (human, coupled to a cellulose membrane via C6-spacer and 2 βAla residues).
T12 construct: Spots were twelve-residue peptides offset by three residues
T12 peptide: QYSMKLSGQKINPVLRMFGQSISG
The test can be described thus: peptide spot membrane, peroxidase-labelled antibody, ECL. The protocol:
as §1

The target of test [14] is T13, Human α9 integrin sequence … (SEQ ID NO: 86) (human, coupled to a cellulose membrane via C6-spacer and 2 βAla residues).
T13 construct: Spots were twelve-residue peptides offset by three residues
The description is as above. The protocol: as §1

Test [15] addresses T14, Human α9 integrin sequence YLALGAVKNISL (SEQ ID NO: 89) (human, also: coupled to cellulose membrane via C6-spacer and 2 βAla (end not given here)).
T14 construct: Spots were twelve-residue peptides offset by three residues
T14 peptide: YLALGAVKNISL
The description is as above. The method, then:
as §1

Ends that are not written are not given here.

B1: 24I11 mouse anti-human α9 integrin monoclonal antibody (FERM BP-10512) (antibody, mouse IgG1, V domains shown)
VH: EVQLQQSGAELVKPGASVKLSCTASGFNIKDTYVHWVKQRPEQGLEWIGNIDPANGNTKYDPKFQGKATITADTSSNTAYLHLSSLTSEDTAVYYCARWLRHFYYAMDYWGQGTSVTVSS
VL: DIQMTQSPASLAASVGETVTITCRASENIYYSLAWYQQKQGKSPQLLIYNANSLEDGVPSRFSGSGSGTQYSMKINSMQPEDTATYFCKQAYDVPYTFGGGTKLEIK
notes: Mouse IgG1/kappa from hybridoma; also called mouse 24I11
As for B1, the binding result in test [1] is listed as “no binding”; in test [2] it was “binds”; in [3] it was “binds”; in test [4], “binds”; in test [5], “binds”; in test [6], “binds”. For the same molecule, the binding result in test [7], in test [8], in test [9], in [10] and in test [11] was “binds” throughout.

B2: 1K11 mouse anti-human α9 integrin monoclonal antibody (FERM BP-10510) (antibody, mouse IgG1, V domains shown)
VH: VQLQESGPELVKPGASVKIPCKASGYTFTDYNMDWVKQSHGKSLEWIGDINPNNGGTIYNQKFQGKATLTVDKSSSTAYMELRSLTSEDTAVYYCARSGVISTDYWGQGTTVTVSS
VL: DIQMTQSPPSLSASLGERVSLTCRASQEISGYLIWLQQKPDGTIQRLIYAASTLDSGVPKRFSGSRSGSDYSLTISSLESEDFADYYCLQYANYPPTFGGGTKLEIKR
notes: Mouse IgG1 from hybridoma
Consider B2, for which the binding result was “no binding” in test [12]; “binds” in test [2]; “binds” in test [3]; “binds” in test [4]; “binds” in test [5]; “binds” in test [6]. The binding result in test [7], in [8], in test [13], in [14], in [9] and in test [15] was “binds” throughout. Moreover, the binding result in test [10] and in test [11] was “binds” each time.

B3: 21C5 mouse anti-human α9 integrin monoclonal antibody (FERM BP-10511) (antibody, mouse IgG1, V domains shown)
VH: VQLQESGGGLVKPGGSLKLSCAASGFTFSDYYMYWVRQTPEKRLEWVATISDGGNYTYYPDSVKGRFTISRDNAKNNLYLQMSSLKSEDTAMYYCARDRDGSSLFAYWGQGTTVTVSS
VL: KFMSTSVGDRVSITCKASQDVNIAVAWYQQRPGQSPKLLIYWASTRHTGVPDRFTGSGSGTDYTLTISSVQAEDLALYYCQQHYNTPWTFGGGTKLEIKR
notes: Mouse IgG1 from hybridoma; cloned with degenerate primers
With B3, the binding result in test [12] is listed as “no binding”.

B4: 28S1 mouse anti-human α9 integrin monoclonal antibody (FERM BP-10832) (antibody, mouse IgG1, V domains shown)
VH: VKLQESGPGLVAPSQSLSITCTVSGFSLTGYGVNWVRQPPGKGLEWLGMIWGDGITEYNSALKSRLSISKDNSKSQVFLKMNSLQTDDTARYYCARDASSGYGFAYWGQGTTVTVSS
VL: YIVLTQSPAIMSASLGERVTMTCTASSSVSSSYLHWYQQKPGSSPKLWIYSTSNLASGVPARFSGSGSGTSYSLTISSMEAEDAATYYCHQYHRSPYTFGGGTKLEIKR
notes: Mouse IgG1 from hybridoma
As to B4, the binding result in test [1] is “no binding”.
